The text below walks through data of publication PMC3089914, “Structural Basis of the 9-Fold Symmetry of Centrioles” (Cell, 2011).

In data set [1] the target is C. reinhardtii Bld12p crN-6HR fragment with F145E (crN-6HR[F145E]) (C. reinhardtii). In words: dilution series monitored by CD at 222 nm; 20°C, samples reduced with DTT; fit to a two-state association (monomer-dimer) model; dimer to monomers.
For data set [2] the target is unchanged. In words: SEC-MALS; S-200 analytical size exclusion column in line with light scattering and refractive index detectors; PBS with 1 mM DTT; samples of 2-4 mg/ml. Background: In gel filtration, larger molecules generally elute earlier.
Data set [3] shares this target. In words: AUC; sedimentation velocity, 20°C, 150 μM protein; 20 mM Tris-HCl pH 7.5, 150 mM NaCl, 2 mM TCEP, 1% glycerol.
Data set [4] addresses C. reinhardtii Bld12p N-terminal domain fragment (crN, residues 1-159) (C. reinhardtii). In words: ITC; dilution: crN at high concentration (1.0-1.6 mM) injected stepwise into buffer; 7°C; 12 mM HEPES pH 7, 100 mM NaCl, 0.7 mM βMe; dimer to monomers. A general note: ITC needs no label: the signal is the heat of the interaction.
Data set [5] deals with the molecule itself. As to the kind of experiment: crystal structure; X-ray crystallography; sitting drop vapor diffusion.
Data set [6] deals with the molecule itself. In words: AUC; sedimentation velocity, 20°C, 300 μM protein; 20 mM Tris-HCl pH 7.5, 150 mM NaCl, 2 mM TCEP, 1% glycerol.
Data set [7] concerns the molecule itself. As to the kind of experiment: ITC; dilution: 1.6 mM ceN injected stepwise into buffer; 7°C; 20 mM sodium phosphate pH 7, 100 mM NaCl, 1 mM DTT; dimer to monomers.
Data set [8] concerns the molecule itself. As to the kind of experiment: AUC; sedimentation velocity, 20°C, 200 μM protein; 20 mM Tris-HCl pH 7.5, 150 mM NaCl, 2 mM TCEP, 1% glycerol.
Data set [9] concerns the molecule itself. In words: SEC-MALS; S-200 analytical size exclusion column in line with light scattering and refractive index detectors; PBS with 1 mM DTT; samples of 2-4 mg/ml.
Data set [10] deals with the molecule itself. In words: dilution series monitored by CD at 222 nm; 20°C, samples reduced with DTT; fit to a two-state association (monomer-dimer) model; dimer to monomers.

A word on the Kd: it is the constant that tells how readily two partners part at equilibrium. High values mean a looser complex, low ones a tighter complex. In general, stoichiometry N refers to a count of units in the complex or per binding partner. “C. reinhardtii Bld12p crN-6HR fragment with F145E (crN-6HR[F145E]) (domain or fragment)” displayed a Kd in data set [1] of 0.5 µM. The stoichiometry N in data set [2] and in [3] was 2 throughout.

In [4], “C. reinhardtii Bld12p N-terminal domain fragment (crN, residues 1-159) (domain or fragment)” displayed a Kd of 60 µM.

B1: C. elegans SAS-6 N-terminal domain fragment with S123E (ceN[S123E]) (domain or fragment, UniProt O62479 1-168, looked up)
chain: MTSKIALFDQTLIASLLQPLSLNQPDFKAYKTKVKLKISEQRNETSGEKELKFEISRSDDFEFLFSETLNNEKYQILARDHDLTVDFDAFPKVIIQHLLCKNIVKNLEEDGEVDARKKAGYHEIADPGKPTEINIILDAEKNFCSFELFSKTPISKGKIFSIKLHAVR
notes: SAS-6, C. elegans, Uniprot ID O62479, N-terminal domain, residues 1-168, Ser123 mutated to glutamate; The crystallised variant; Two molecules in the asymmetric unit; also called ceN variant; ceN-dimer; source: recombinant, purified, crystallised; preparation of the variant not described
Regarding B1, the binding result in data set [5] is on record as “binds”.

B2: C. elegans SAS-6 N-terminal domain fragment (ceN, residues 1-168) (domain or fragment, UniProt O62479 1-168, looked up)
chain: MTSKIALFDQTLIASLLQPLSLNQPDFKAYKTKVKLKISEQRNETSGEKELKFEISRSDDFEFLFSETLNNEKYQILARDHDLTVDFDAFPKVIIQHLLCKNIVKNLEEDGEVDARKKAGYHSIADPGKPTEINIILDAEKNFCSFELFSKTPISKGKIFSIKLHAVR
notes: SAS-6, C. elegans, Uniprot ID O62479, N-terminal domain, residues 1-168; Cloned in a modified pET15b vector; His6-tag removed by thrombin; source: E. coli BL21 gold (DE3), purified (Ni-NTA, size exclusion chromatography); not shown: His6, N-terminal, cleaved
Take B2: the “stoichiometry N” value in data set [6] was determined as 2. For the same molecule, the Kd in data set [7] is about 110 µM.

B3: C. elegans SAS-6 N terminus plus coiled coil fragment (ceN-CC, residues 1-414) (domain or fragment, UniProt O62479 1-414, looked up)
chain: MTSKIALFDQTLIASLLQPLSLNQPDFKAYKTKVKLKISEQRNETSGEKELKFEISRSDDFEFLFSETLNNEKYQILARDHDLTVDFDAFPKVIIQHLLCKNIVKNLEEDGEVDARKKAGYHSIADPGKPTEINIILDAEKNFCSFELFSKTPISKGKIFSIKLHAVRGDHLISHLLKICSSQAVKLSTFYKSADELASLRQKCGDLEKQVEKLSGVKEEFEEMSEKFKELEDEVELVKEERENIRLLVEDKEDEVADLKQDTESLQKQLEENQEELEIVGNMLREEQGKVDQLQKRNVAHQKEIGKLRAELGTAQRNLEKADQLLKRNSQQQNQQSLDMRKLGELEADLKEKDSMVESLTETIGILRKELENEKLKAAENMDSFEKLSMENENLKEKIAHYRAQRFSPAPSGL
notes: SAS-6, C. elegans, Uniprot ID O62479, N terminus plus coiled coil, residues 1-414; A His6 form from pET30a was used for electron microscopy only; source: E. coli BL21 gold (DE3), purified (glutathione sepharose, eluted by prescission protease, dialysis); not shown: GST, N-terminal, cleaved
As for B3, in data set [8], the binding result is listed as “binds”.

B4: C. elegans SAS-6 N terminus plus coiled coil fragment with I154E (ceN-CC[I154E]) (domain or fragment, UniProt O62479 1-414, looked up)
chain: MTSKIALFDQTLIASLLQPLSLNQPDFKAYKTKVKLKISEQRNETSGEKELKFEISRSDDFEFLFSETLNNEKYQILARDHDLTVDFDAFPKVIIQHLLCKNIVKNLEEDGEVDARKKAGYHSIADPGKPTEINIILDAEKNFCSFELFSKTPESKGKIFSIKLHAVRGDHLISHLLKICSSQAVKLSTFYKSADELASLRQKCGDLEKQVEKLSGVKEEFEEMSEKFKELEDEVELVKEERENIRLLVEDKEDEVADLKQDTESLQKQLEENQEELEIVGNMLREEQGKVDQLQKRNVAHQKEIGKLRAELGTAQRNLEKADQLLKRNSQQQNQQSLDMRKLGELEADLKEKDSMVESLTETIGILRKELENEKLKAAENMDSFEKLSMENENLKEKIAHYRAQRFSPAPSGL
notes: SAS-6, C. elegans, Uniprot ID O62479, residues 1-414, I154 exchanged by glutamate; source: preparation of the mutant not described
Consider B4, for which the “stoichiometry N” value in [8] was 2.

B5: C. elegans SAS-6 coiled-coil domain fragment (ceCC, residues 181-408) (domain or fragment, UniProt O62479 181-408, looked up)
chain: SSQAVKLSTFYKSADELASLRQKCGDLEKQVEKLSGVKEEFEEMSEKFKELEDEVELVKEERENIRLLVEDKEDEVADLKQDTESLQKQLEENQEELEIVGNMLREEQGKVDQLQKRNVAHQKEIGKLRAELGTAQRNLEKADQLLKRNSQQQNQQSLDMRKLGELEADLKEKDSMVESLTETIGILRKELENEKLKAAENMDSFEKLSMENENLKEKIAHYRAQRFS
notes: SAS-6, C. elegans, Uniprot ID O62479, coiled coil, residues 181-408; Cloned in pET15b; His6-tag removed by thrombin; Monomer mass 27.4 kDa as printed; also called SAS-6 ceCC; source: recombinant, bacteria; not shown: His6, N-terminal, cleaved
On to B5, for which the “stoichiometry N” value in data set [9] is 2. The molecule also had a Kd in [10] of 0.9 ± 0.1 µM.
